Reference: patent publication US20100189760A1

B1: clone 15-2 peptide (peptide)
peptide: DHKFGLVMLNKYAYAG
B2: clone Co-10 peptide (peptide)
peptide: WRCLGDGYHACVR
B3: clone Co-11 peptide (peptide)
peptide: LECPGESKYYCIY
B4: clone Co-17 peptide (peptide)
peptide: WECAEESKFWCVF
B5: clone 7C-3 peptide (peptide)
peptide: WFCLLGRSAYCVR
B6: clone Co-16 peptide (peptide)
peptide: QGCAFVTYWACIF
B7: clone 7C-9 peptide (peptide)
peptide: KLCCFDKGYYCMR
B8: clone Co-18 peptide (peptide)
peptide: WWCKKPEYWYCIW
B9: clone Co-23 peptide (peptide)
peptide: LVCNRQNPWVCYI
B10: clone Co-15 peptide (peptide)
peptide: WVCNDLIHHFCVW
B11: clone Co-20 peptide (peptide)
peptide: RLCCWKTQYFCEI
B12: clone Co-3 peptide (peptide)
peptide: GGCRWYAKWVCVW
B13: clone Co-21 peptide (peptide)
peptide: MYCERDSKYWCIH
B14: clone 15-32 peptide (peptide)
peptide: RRELVRMTDWVWVSG
B15: clone 15-6 peptide (peptide)
peptide: LEDAMGWALSWGHIW
B16: clone 7C-8 peptide (peptide)
peptide: WLCLDKNCMACVW
B17: clone 7C-17 peptide (peptide)
peptide: WLCKGSNKYMCEW
B18: clone Co-5 peptide (peptide)
peptide: WDCGKKNAWMCIW
B19: clone 7C-20 peptide (peptide)
peptide: WVCIWERFKSCNE
B20: clone 7C-5 peptide (peptide)
peptide: IWCGSRFGCWCKP
B21: clone 15-50 peptide (peptide)
peptide: GFVLVWSYTCRCWGK
B22: clone Co-13 peptide (peptide)
peptide: STCSWVSSYVCIM
B23: clone Co-9 peptide (peptide)
peptide: SKCWGWTPYYCVA
B24: clone 7C-12 peptide (peptide)
peptide: FWCIRGEYWVCDR
B25: clone 15-16 peptide (peptide)
peptide: SDWSVLLSCERWYCI
B26: clone 15-52 peptide (peptide)
peptide: ESGLKVMCMKYYCMA
B27: clone 7C-4 peptide (peptide)
peptide: YMCMSRGDATCDV
B28: clone 7C-6 peptide (peptide)
peptide: GECFYYVMNTCVW
B29: clone 7C-24 peptide (peptide)
peptide: WWCDMRGDSRCSG
B30: clone Co-8 peptide (peptide)
peptide: WTWESAFAGRWEVGD
B31: clone 7C-2 peptide (peptide)
peptide: ESCWYQIMYKCAN
B32: clone 7C-14 peptide (peptide)
peptide: LNCAMYNACIW
B33: clone 7C-15 peptide (peptide)
peptide: QCCQLRGDAVCNC
B34: clone Co-22 peptide (peptide)
peptide: VWCGMFGKRRCVT
B35: clone Co-19 peptide (peptide)
peptide: WQCGRFWCIHCLW
B36: clone 7C-7 peptide (peptide)
peptide: LECTERGDFNCFV
B37: clone 7C-22 peptide (peptide)
peptide: WMCSGVQPNACVW
B38: clone 7C-11 peptide (peptide)
peptide: LCCESYICALCHY
B39: clone 15-59 peptide (peptide)
peptide: DLCTYGHLWLGNGRP
B40: clone 7C-19 peptide (peptide)
peptide: WVCNKLGVYACEY
B41: clone 7C-21 peptide (peptide)
peptide: WNCIKGSSWACVW
B42: clone 7C-1 peptide (peptide)
peptide: WYCFRENKYVCVM
B43: clone Co-2 peptide (peptide)
peptide: WSCPKVNQYACFW
B44: clone Co-12 peptide (peptide)
peptide: WVCLWRHRGDCSI
B45: clone Co-1 peptide (peptide)
peptide: SLCAAYNRWACIW

Molecular target: neural stem cell surface (cell surface molecule(s) of NSCs, not identified) (rat (adult hippocampus, stated in Example 1))
Assay: flow cytometry, GFP bacterial clone displaying the peptide on NSCs

Binder	% NSCs with Bacteria [%]
B1	75.9
B2	72.7
B3	72.7
B4	72.1
B5	71.9
B6	71.9
B7	71.3
B8	71.3
B9	71.1
B10	70.9
B11	70.9
B12	75.7
B13	70.9
B14	70.4
B15	70.2
B16	68.8
B17	67.8
B18	67.4
B19	65.7
B20	65.6
B21	64.9
B22	64.8
B23	75.7

Binder	% NSCs with Bacteria [%]
B24	64.5
B25	63.9
B26	63.3
B27	62
B28	61.8
B29	61.7
B30	61.7
B31	55.2
B32	54.5
B33	54
B34	75.6
B35	50.6
B36	47.8
B37	46.9
B38	37.7
B39	22.5
B40	20.5
B41	75.5
B42	75.2
B43	74.8
B44	74.3
B45	73.8
